Reference: the supplement of paper PMC7877785
± gives the uncertainty stated by the source.

Assay: self-splicing fitness, log relative to wild type (ln ratio); higher = more splicing; Tetrahymena group I intron in knt gene, E. coli kanamycin selection, DiMSum; sequences stand for … in CUCUCU…GGAGGGAAAAGUUAUCAGGCAUGCACCUGGUAGCUAGUCUUUAAACCAAUAGAUUGCAUCGGUUUAAAAGGCAAGACCGUCAAAUUGCGGGAAAGGGGUCAACAGCCGUUCAGUACCAAGUCUCAGGGGAAACUUUGAGAUGGCCUUGCAAAGGGUAUGGUAAUAAGCUGACGGACAUGGUCCUAACCACGCAGCCAAGUCCUAAGUCAACAGAUCUUCUGUUGAUAUGGAUGCAGUUCACAGACUAAAUGUCGGUCGGGGAAGAUGUAUUCUUCUCAUAAGAUAUAGUCGGACCUCUCCUUAAUGGGAGCUAGCGGAUGAAGUGAUGCAACACUGGAGCCGCUGGGAACUAAUUUGUAUGCGAAAGUAUAUUGAUUAGUUUUGGAGUACUCGUGGUCG
How it was run: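 Fitness was computed with DiMSum as the error-weighted combination of replicate fold changes, kanamycin versus none, each normalised to wild type. The library randomised all eight intron nucleotides of the P1ex region, with the intron placed in the knt kanamycin-resistance gene on pET-22b(+) in E. coli BL21(DE3). Six replicate transformations were grown overnight at 37°C or 30°C on LB agar with or without 25 μg/mL kanamycin, plus 100 μg/mL carbenicillin, 50 μM IPTG and 0.2% rhamnose. Pooled colonies were amplicon-sequenced on an Illumina HiSeq 2500.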

ACCCAGCAAUAUUACGGCUU
self-splicing fitness (ln) (30 °C): -0.338 ± 0.071
self-splicing fitness (ln) (37 °C): 0.053 ± 0.089

ACCCAGCAAUAUUACGGGAC
self-splicing fitness (ln) (30 °C): -2.71 ± 0.1
self-splicing fitness (ln) (37 °C): -1.54 ± 0.1

ACCCAGCAAUAUUACGGGAU
self-splicing fitness (ln) (30 °C): -2.6 ± 0.085
self-splicing fitness (ln) (37 °C): -1.01 ± 0.076

ACCCAGCAAUAUUACGGGUU
self-splicing fitness (ln) (30 °C): -4.18 ± 0.12
self-splicing fitness (ln) (37 °C): -2.84 ± 0.13

ACCCAGCAAUAUUACGUCCC
self-splicing fitness (ln) (30 °C): -1.18 ± 0.16
self-splicing fitness (ln) (37 °C): -0.981 ± 0.17

ACCCAGCAAUAUUACGUCUC
self-splicing fitness (ln) (30 °C): -1.89 ± 0.078
self-splicing fitness (ln) (37 °C): -0.796 ± 0.094

ACCCAGCAAUAUUACGUGGC
self-splicing fitness (ln) (30 °C): -2.83 ± 0.13
self-splicing fitness (ln) (37 °C): -1.69 ± 0.11

ACCCAGCAAUAUUACGUGUU
self-splicing fitness (ln) (30 °C): -1.45 ± 0.047
self-splicing fitness (ln) (37 °C): -0.111 ± 0.061

ACCGAGCAAUAUUACGAACA
self-splicing fitness (ln) (30 °C): -3.15 ± 0.47
self-splicing fitness (ln) (37 °C): -1.43 ± 0.17

ACCGAGCAAUAUUACGAACC
self-splicing fitness (ln) (30 °C): -2.9 ± 0.39

ACCGAGCAAUAUUACGAAGU
self-splicing fitness (ln) (30 °C): -1.93 ± 0.16
self-splicing fitness (ln) (37 °C): -1.68 ± 0.22

ACCGAGCAAUAUUACGACGG
self-splicing fitness (ln) (30 °C): -2.24 ± 0.2
self-splicing fitness (ln) (37 °C): -0.893 ± 0.21

ACCGAGCAAUAUUACGACGU
self-splicing fitness (ln) (30 °C): -2.04 ± 0.1
self-splicing fitness (ln) (37 °C): -0.637 ± 0.11

ACCGAGCAAUAUUACGACUC
self-splicing fitness (ln) (30 °C): -1.44 ± 0.29
self-splicing fitness (ln) (37 °C): -1.59 ± 0.22

ACCGAGCAAUAUUACGACUU
self-splicing fitness (ln) (30 °C): -1.12 ± 0.087
self-splicing fitness (ln) (37 °C): -0.353 ± 0.11

ACCGAGCAAUAUUACGAGGA
self-splicing fitness (ln) (30 °C): -2.77 ± 0.21
self-splicing fitness (ln) (37 °C): -2.99 ± 0.38

ACCGAGCAAUAUUACGAGUC
self-splicing fitness (ln) (30 °C): -4.62 ± 0.3
self-splicing fitness (ln) (37 °C): -3.25 ± 0.22

ACCGAGCAAUAUUACGCAAU
self-splicing fitness (ln) (30 °C): -2.71 ± 0.16
self-splicing fitness (ln) (37 °C): -2.36 ± 0.32

ACCGAGCAAUAUUACGCAGA
self-splicing fitness (ln) (30 °C): -2.2 ± 0.19
self-splicing fitness (ln) (37 °C): -2.51 ± 0.23

ACCGAGCAAUAUUACGCCCG
self-splicing fitness (ln) (30 °C): -2.05 ± 0.29
self-splicing fitness (ln) (37 °C): -1.28 ± 0.33

ACCGAGCAAUAUUACGCGCC
self-splicing fitness (ln) (30 °C): -3.19 ± 0.25
self-splicing fitness (ln) (37 °C): -3.32 ± 0.43

ACCGAGCAAUAUUACGCGUU
self-splicing fitness (ln) (30 °C): -2.95 ± 0.16
self-splicing fitness (ln) (37 °C): -1.58 ± 0.18

ACCGAGCAAUAUUACGCUGG
self-splicing fitness (ln) (30 °C): -4.24 ± 0.26
self-splicing fitness (ln) (37 °C): -2.13 ± 0.21

ACCGAGCAAUAUUACGGAAG
self-splicing fitness (ln) (30 °C): -4.18 ± 0.34
self-splicing fitness (ln) (37 °C): -1.93 ± 0.43

ACCGAGCAAUAUUACGGCCA
self-splicing fitness (ln) (30 °C): -0.778 ± 0.13
self-splicing fitness (ln) (37 °C): -0.469 ± 0.14

ACCGAGCAAUAUUACGGCCC
self-splicing fitness (ln) (30 °C): -2.37 ± 0.21
self-splicing fitness (ln) (37 °C): -1.89 ± 0.29

ACCGAGCAAUAUUACGGCGC
self-splicing fitness (ln) (30 °C): -1.24 ± 0.14
self-splicing fitness (ln) (37 °C): -0.396 ± 0.16

ACCGAGCAAUAUUACGGCUA
self-splicing fitness (ln) (30 °C): -0.869 ± 0.096
self-splicing fitness (ln) (37 °C): -0.288 ± 0.091

ACCGAGCAAUAUUACGGCUG
self-splicing fitness (ln) (30 °C): -1.28 ± 0.073
self-splicing fitness (ln) (37 °C): -1.24 ± 0.1

ACCGAGCAAUAUUACGGGCG
self-splicing fitness (ln) (30 °C): -1.64 ± 0.083
self-splicing fitness (ln) (37 °C): -0.0363 ± 0.088

ACCGAGCAAUAUUACGGUCA
self-splicing fitness (ln) (30 °C): -1.22 ± 0.12
self-splicing fitness (ln) (37 °C): -1.06 ± 0.14

ACCGAGCAAUAUUACGGUUC
self-splicing fitness (ln) (30 °C): -3.5 ± 0.43

ACCGAGCAAUAUUACGUCCA
self-splicing fitness (ln) (37 °C): -0.553 ± 0.21

ACCGAGCAAUAUUACGUGAU
self-splicing fitness (ln) (30 °C): -3.36 ± 0.13
self-splicing fitness (ln) (37 °C): -2.06 ± 0.12

ACCUAGCAAUAUUACGAAUC
self-splicing fitness (ln) (30 °C): -2.94 ± 0.15
self-splicing fitness (ln) (37 °C): -1.07 ± 0.13

ACCUAGCAAUAUUACGACCA
self-splicing fitness (ln) (30 °C): -1.25 ± 0.16
self-splicing fitness (ln) (37 °C): 0.323 ± 0.17

ACCUAGCAAUAUUACGAGCU
self-splicing fitness (ln) (30 °C): -0.918 ± 0.075
self-splicing fitness (ln) (37 °C): -0.237 ± 0.09

ACCUAGCAAUAUUACGCUCU
self-splicing fitness (ln) (30 °C): -0.243 ± 0.096
self-splicing fitness (ln) (37 °C): -0.447 ± 0.098

ACCUAGCAAUAUUACGCUUC
self-splicing fitness (ln) (30 °C): -1.2 ± 0.1
self-splicing fitness (ln) (37 °C): -1.1 ± 0.11

ACCUAGCAAUAUUACGGACG
self-splicing fitness (ln) (30 °C): -0.864 ± 0.07
self-splicing fitness (ln) (37 °C): -0.114 ± 0.1

ACCUAGCAAUAUUACGGAGC
self-splicing fitness (ln) (30 °C): -2.67 ± 0.12
self-splicing fitness (ln) (37 °C): -1.28 ± 0.14

ACCUAGCAAUAUUACGGCAC
self-splicing fitness (ln) (30 °C): -0.933 ± 0.062
self-splicing fitness (ln) (37 °C): -0.492 ± 0.07

ACCUAGCAAUAUUACGGCAG
self-splicing fitness (ln) (30 °C): -3.99 ± 0.19
self-splicing fitness (ln) (37 °C): -1.16 ± 0.14

ACCUAGCAAUAUUACGGGCG
self-splicing fitness (ln) (30 °C): -0.0397 ± 0.068
self-splicing fitness (ln) (37 °C): -0.0691 ± 0.084

ACCUAGCAAUAUUACGGGUU
self-splicing fitness (ln) (30 °C): -2.78 ± 0.14
self-splicing fitness (ln) (37 °C): -1.95 ± 0.14

ACCUAGCAAUAUUACGGUUA
self-splicing fitness (ln) (30 °C): -2.38 ± 0.18
self-splicing fitness (ln) (37 °C): -1.57 ± 0.14

ACCUAGCAAUAUUACGUAGC
self-splicing fitness (ln) (30 °C): -1.81 ± 0.12
self-splicing fitness (ln) (37 °C): -0.966 ± 0.14

ACCUAGCAAUAUUACGUCCG
self-splicing fitness (ln) (30 °C): -2.21 ± 0.14
self-splicing fitness (ln) (37 °C): -0.377 ± 0.19
